What was measured:
[1] = test system: HeLa Kyoto; assay: solubility in G1/S (NP-40 vs SDS abundance) (log2 ratio); higher = more soluble; conditions: cell cycle stage: G1/S
[2] = test system: HeLa Kyoto; assay: thermal stability score vs G1/S (z-score of summed log2 fold changes over temperatures); higher = more thermally stable than in G1/S
[3] = test system: HeLa Kyoto; assay: melting temperature (median over replicates), in situ; higher = more thermally stable
[4] = test system: HeLa Kyoto; assay: solubility change mitosis vs G1/S (difference of NP-40 vs SDS log2 ratios) (log2 ratio difference); higher = more soluble in mitosis
[5] = cell cycle stage: early G1 (4.5 h after nocodazole release)
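For melting temperature (median over replicates), in situ in this document: HeLa Kyoto cells synchronized by double thymidine or nocodazole block, proteins quantified by TMT10plex mass spectrometry, three independent biological replicates.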
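For solubility change mitosis vs G1/S (difference of NP-40 vs SDS log2 ratios) in this document: synchronized HeLa Kyoto cells (double thymidine block for G1/S, nocodazole release for mitosis), protein amounts in NP-40 versus SDS lysates quantified by mass spectrometry, three biological replicates.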
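For solubility in G1/S (NP-40 vs SDS abundance) in this document: HeLa Kyoto cells arrested at G1/S by double thymidine block, proteins quantified by TMT10plex mass spectrometry in mild NP-40 versus SDS extracts, three biological replicates.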
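For thermal stability score vs G1/S (z-score of summed log2 fold changes over temperatures) in this document: synchronized HeLa Kyoto cells, proteins quantified by TMT10plex mass spectrometry, three biological replicates, mitosis taken 0.5 h after nocodazole release, G1/S directly after double thymidine block.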

Sequence	solubility in G1/S (log2) [1]	thermal stability score [2, 5]	thermal stability score ([2]; cell cycle stage: mitosis)	melting temperature ([3]; cell cycle stage: G1/S)	melting temperature ([3]; cell cycle stage: mitosis)	solubility change mitosis (log2) [4]
MALHVPKAPGFAQMLKEGAKHFSGLEEAVYRNIQACKELAQTTRTAYGPNGMNKMVINHLEKLFVTNDAATILRELEVQHPAAKMIVMASHMQEQEVGDGTNFVLVFAGALLELAEELLRIGLSVSEVIEGYEIACRKAHEILPNLVCCSAKNLRDIDEVSSLLRTSIMSKQYGNEVFLAKLIAQACVSIFPDSGHFNVDNIRVCKILGSGISSSSVLHGMVFKKETEGDVTSVKDAKIAVYSCPFDGMITETKGTVLIKTAEELMNFSKGEENLMDAQVKAIADTGANVVVTGGKVADMALHYANKYNIMLVRLNSKWDLRRLCKTVGATALPRLTPPVLEEMGHCDSVYLSEVGDTQVVVFKHEKEDGAISTIVLRGSTDNLMDDIERAVDDGVNTFKVLTRDKRLVPGGGATEIELAKQITSYGETCPGLEQYAIKKFAEAFEAIPRALAENSGVKANEVISKLYAVHQEGNKNVGLDIEAEVPAVKDMLEAGILDTYLGKYWAIKLATNAAVTVLRVDQIIMAKPAGGPKPPSGKKDWDDDQND [CCT8]	0.0969	-0.228	-1.4	54.2 °C	53.9 °C	-0.0769
MALKVATVAGSAAKAVLGPALLCRPWEVLGAHEVPSRNIFSEQTIPPSAKYGGRHTVTMIPGDGIGPELMLHVKSVFRHACVPVDFEEVHVSSNADEEDIRNAIMAIRRNRVALKGNIETNHNLPPSHKSRNNILRTSLDLYANVIHCKSLPGVVTRHKDIDILIVRENTEGEYSSLEHESVAGVVESLKIITKAKSLRIAEYAFKLAQESGRKKVTAVHKANIMKLGDGLFLQCCREVAARYPQITFENMIVDNTTMQLVSRPQQFDVMVMPNLYGNIVNNVCAGLVGGPGLVAGANYGHVYAVFETATRNTGKSIANKNIANPTATLLASCMMLDHLKLHSYATSIRKAVLASMDNENMHTPDIGGQGTTSEAIQDVIRHIRVINGRAVEA [IDH3G]	0.253	-0.804	-0.821	54.5 °C	54 °C	-0.0967
MALLFARSLRLCRWGAKRLGVASTEAQRGVSFKLEEKTAHSSLALFRDDTGVKYGLVGLEPTKVALNVERFREWAVVLADTAVTSGRHYWEVTVKRSQQFRIGVADVDMSRDSCIGVDDRSWVFTYAQRKWYTMLANEKAPVEGIGQPEKVGLLLEYEAQKLSLVDVSQVSVVHTLQTDFRGPVVPAFALWDGELLTHSGLEVPEGL [SPRYD4]	-0.0415	-1.47	-3.25	53.9 °C	54.8 °C	-0.14
MALLTAAARLLGTKNASCLVLAARHASASSTNLKDILADLIPKEQARIKTFRQQHGKTVVGQITVDMMYGGMRGMKGLVYETSVLDPDEGIRFRGFSIPECQKLLPKAKGGEEPLPEGLFWLLVTGHIPTEEQVSWLSKEWAKRAALPSHVVTMLDNFPTNLHPMSQLSAAVTALNSESNFARAYAQGISRTKYWELIYEDSMDLIAKLPCVAAKIYRNLYREGSGIGAIDSNLDWSHNFTNMLGYTDHQFTELTRLYLTIHSDHEGGNVSAHTSHLVGSALSDPYLSFAAAMNGLAGPLHGLANQEVLVWLTQLQKEVGKDVSDEKLRDYIWNTLNSGRVVPGYGHAVLRKTDPRYTCQREFALKHLPNDPMFKLVAQLYKIVPNVLLEQGKAKNPWPNVDAHSGVLLQYYGMTEMNYYTVLFGVSRALGVLAQLIWSRALGFPLERPKSMSTEGLMKFVDSKSG [CS]	0.519	1.01	0.1	52 °C	51.9 °C	-0.0123
MALQTLQSSWVTFRKILSHFPEELSLAFVYGSGVYRQAGPSSDQKNAMLDFVFTVDDPVAWHSKNLKKNWSHYSFLKVLGPKIITSIQNNYGAGVYYNSLIMCNGRLIKYGVISTNVLIEDLLNWNNLYIAGRLQKPVKIISVNEDVTLRSALDRNLKSAVTAAFLMLPESFSEEDLFIEIAGLSYSGDFRMVVGEDKTKVLNIVKPNIAHFRELYGSILQENPQVVYKSQQGWLEIDKSPEGQFTQLMTLPKTLQQQINHIMDPPGKNRDVEETLFQVAHDPDCGDVVRLGLSAIVRPSSIRQSTKGIFTAGKSFGNPCVTYLLTEWLPHSWLQCKALYLLGACEMLSFDGHKLGYCSKVQTGITAAEPGGRTMSDHWQCCWKLYCPSEFSETLPVCRVFPSYCFIYQSYRCIGLQKQQHLCSPSSSPSLRQLLPSVLVGYFCCYCHFSKW [TAMM41]	0.0094	-1.37	-1.38	52.6 °C	52.8 °C	-0.163
MALRGVSVRLLSRGPGLHVLRTWVSSAAQTEKGGRTQSQLAKSSRPEFDWQDPLVLEEQLTTDEILIRDTFRTYCQERLMPRILLANRNEVFHREIISEMGELGVLGPTIKGYGCAGVSSVAYGLLARELERVDSGYRSAMSVQSSLVMHPIYAYGSEEQRQKYLPQLAKGELLGCFGLTEPNSGSDPSSMETRAHYNSSNKSYTLNGTKTWITNSPMADLFVVWARCEDGCIRGFLLEKGMRGLSAPRIQGKFSLRASATGMIIMDGVEVPEENVLPGASSLGGPFGCLNNARYGIAWGVLGASEFCLHTARQYALDRMQFGVPLARNQLIQKKLADMLTEITLGLHACLQLGRLKDQDKAAPEMVSLLKRNNCGKALDIARQARDMLGGNGISDEYHVIRHAMNLEAVNTYEGTHDIHALILGRAITGIQAFTASK [GCDH]	0.217	-0.63	1.21	54.2 °C	54.7 °C	-0.103
MALSCTLNRYLLLMAQEHLEFRLPEIKSLLLLFGGQFASSQETYGKSPFWILSIPSEDIARNLMKRTVCAKSIFELWGHGQSPEELYSSLKNYPVEKMVPFLHSDSTYKIKIHTFNKTLTQEEKIKRIDALEFLPFEGKVNLKKPQHVFSVLEDYGLDPNCIPENPHNIYFGRWIADGQRELIESYSVKKRHFIGNTSMDAGLSFIMANHGKVKENDIVFDPFVGTGGLLIACAHFGAYVYGTDIDYNTVHGLGKATRKNQKWRGPDENIRANLRQYGLEKYYLDVLVSDASKPSWRKGTYFDAIITDPPYGIRESTRRTGSQKEIPKGIEKWEKCPESHVPVSLSYHLSDMFLDLLNFAAETLVLGGRLVYWLPVYTPEYTEEMVPWHPCLELVSNCEQKLSSHTSRRLITMEKVKKFENRDQYSHLLSDHFLPYQGHNSFREKYFSGVTKRIAKEEKSTQE [TRMT11]	0.171	0.848	-0.0136	54.4 °C	53.5 °C	-0.155
MAMAPSPSLVQVYTSPAAVAVWEWQDGLGTWHPYSATVCSFIEQQFVQQKGQRFGLGSLAHSIPLGQADPSLAPYIIDLPSWTQFRQDTGTMRAVRRHLFPQHSAPGRGVVWEWLSDDGSWTAYEASVCDYLEQQVARGNQLVDLAPLGYNYTVNYTTHTQTNKTSSFCRSVRRQAGPPYPVTTIIAPPGHTGVACSCHQCLSGSRTGPVSGRYRHSMTNLPAYPVPQHPPHRTASVFGTHQAFAPYNKPSLSGARSAPRLNTTNAWGAAPPSLGSQPLYRSSLSHLGPQHLPPGSSTSGAVSASLPSGPSSSPGSVPATVPMQMPKPSRVQQALAGMTSVLMSAIGLPVCLSRAPQPTSPPASRLASKSHGSVKRLRKMSVKGATPKPEPEPEQVIKNYTEELKVPPDEDCIICMEKLSTASGYSDVTDSKAIGSLAVGHLTKCSHAFHLLCLLAMYCNGNKDGSLQCPSCKTIYGEKTGTQPQGKMEVLRFQMSLPGHEDCGTILIVYSIPHGIQGPEHPNPGKPFTARGFPRQCYLPDNAQGRKVLELLKVAWKRRLIFTVGTSSTTGETDTVVWNEIHHKTEMDRNITGHGYPDPNYLQNVLAELAAQGVTEDCLEQQ [DTX2]	0.0228	0.67	0.769		47.4 °C	-0.253
MAMQKIFAREILDSRGNPTVEVDLHTAKGRFRAAVPSGASTGIYEALELRDGDKGRYLGKGVLKAVENINNTLGPALLQKKLSVVDQEKVDKFMIELDGTENKSKFGANAILGVSLAVCKAGAAEKGVPLYRHIADLAGNPDLILPVPAFNVINGGSHAGNKLAMQEFMILPVGASSFKEAMRIGAEVYHHLKGVIKAKYGKDATNVGDEGGFAPNILENNEALELLKTAIQAAGYPDKVVIGMDVAASEFYRNGKYDLDFKSPDDPARHITGEKLGELYKSFIKNYPVVSIEDPFDQDDWATWTSFLSGVNIQIVGDDLTVTNPKRIAQAVEKKACNCLLLKVNQIGSVTESIQACKLAQSNGWGVMVSHRSGETEDTFIADLVVGLCTGQIKTGAPCRSERLAKYNQLMRIEEALGDKAIFAGRKFRNPKAK [ENO3]	0.117	-0.939	-1.58	55.2 °C	56.6 °C	0.0137

From the supplement of paper PMC5998384
